For the assay, the target named is Human β2GPI domain deletion mutant DI-DIV (human). The assay can be described thus: ELISA; β2GPI or domain deletion mutants coated on Maxisorb plates at 1 µM overnight at 4 °C; Apo E-Biotin 50 nM, 1 h at RT; streptavidin-HRP, OD 450; % of binding to full length β2GPI. A general note: An ELISA detects its analyte on a solid surface through an enzyme-linked reagent.

Take “Human Apo E2, biotinylated (from UniProt P02649 19-317) (natural protein)”: the % binding was determined as 42.5%.

For the origin of these results see article PMC12535091.
